According to the supplement of paper PMC10567573:

B1: KRT71 (parent)
chain: FGSRSLYSLGGVRSLNVASGSGKS

Variants of: B1
Assay: protein stability index of a GFP-peptide fusion (GPS, HEK-293T) (PSI 1-6); higher = more stable
Conditions: c terminus: a fixed tail appended
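Note: lentivirally expressed fusions sorted by FACS into six bins by GFP to DsRed ratio, PSI derived from sequencing read proportions per bin multiplied by bin number.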

Variant	protein stability index
FGSRSLYWLGGVRSLNVASGSGKS	2.62
FGSRSLYYLGGVRSLNVASGSGKS	1.2
FGSRSLYSAGGVRSLNVASGSGKS	2.5
FGSRSLYSCGGVRSLNVASGSGKS	2.12
FGSRSLYSDGGVRSLNVASGSGKS	2.56
FGSRSLYSEGGVRSLNVASGSGKS	2.59
FGSRSLYSFGGVRSLNVASGSGKS	1.88
FGSRSLYSGGGVRSLNVASGSGKS	2.66
FGSRSLYSHGGVRSLNVASGSGKS	2.75
FGSRSLYSIGGVRSLNVASGSGKS	1.75
FGSRSLYSKGGVRSLNVASGSGKS	2.27
FGSRSLYSMGGVRSLNVASGSGKS	1.83
FGSRSLYSNGGVRSLNVASGSGKS	2.51
FGSRSLYSPGGVRSLNVASGSGKS	2.6
FGSRSLYSQGGVRSLNVASGSGKS	2.79
FGSRSLYSRGGVRSLNVASGSGKS	2.56
FGSRSLYSSGGVRSLNVASGSGKS	2.18
FGSRSLYSTGGVRSLNVASGSGKS	2.64
FGSRSLYSVGGVRSLNVASGSGKS	2.62
FGSRSLYSWGGVRSLNVASGSGKS	1.87
FGSRSLYSYGGVRSLNVASGSGKS	1.77
FGSRSLYSLAGVRSLNVASGSGKS	1.66
FGSRSLYSLCGVRSLNVASGSGKS	3.19
FGSRSLYSLDGVRSLNVASGSGKS	2.51

Variant	protein stability index
FGSRSLYSLEGVRSLNVASGSGKS	2.31
FGSRSLYSLFGVRSLNVASGSGKS	1.5
FGSRSLYSLHGVRSLNVASGSGKS	2.56
FGSRSLYSLIGVRSLNVASGSGKS	3.84
FGSRSLYSLKGVRSLNVASGSGKS	1.9
FGSRSLYSLLGVRSLNVASGSGKS	2.6
FGSRSLYSLMGVRSLNVASGSGKS	2.09
FGSRSLYSLNGVRSLNVASGSGKS	2.16
FGSRSLYSLPGVRSLNVASGSGKS	2.03
FGSRSLYSLQGVRSLNVASGSGKS	2.08
FGSRSLYSLRGVRSLNVASGSGKS	1.6
FGSRSLYSLSGVRSLNVASGSGKS	1.83
FGSRSLYSLTGVRSLNVASGSGKS	2.05
FGSRSLYSLVGVRSLNVASGSGKS	1.58
FGSRSLYSLWGVRSLNVASGSGKS	2.79
FGSRSLYSLYGVRSLNVASGSGKS	1.94
FGSRSLYSLGCVRSLNVASGSGKS	2.87
FGSRSLYSLGDVRSLNVASGSGKS	2.25
FGSRSLYSLGEVRSLNVASGSGKS	2.92
FGSRSLYSLGHVRSLNVASGSGKS	2.33
FGSRSLYSLGIVRSLNVASGSGKS	5.35
FGSRSLYSLGKVRSLNVASGSGKS	1.64
FGSRSLYSLGLVRSLNVASGSGKS	2.9
FGSRSLYSLGMVRSLNVASGSGKS	2.71

Variant	protein stability index
FGSRSLYSLGNVRSLNVASGSGKS	2.24
FGSRSLYSLGPVRSLNVASGSGKS	1.8
FGSRSLYSLGQVRSLNVASGSGKS	3.2
FGSRSLYSLGRVRSLNVASGSGKS	2.46
FGSRSLYSLGSVRSLNVASGSGKS	2.11
FGSRSLYSLGTVRSLNVASGSGKS	2.4
FGSRSLYSLGVVRSLNVASGSGKS	4.85
FGSRSLYSLGWVRSLNVASGSGKS	2.62
FGSRSLYSLGYVRSLNVASGSGKS	3.77
FGSRSLYSLGGARSLNVASGSGKS	1.81
FGSRSLYSLGGCRSLNVASGSGKS	1.55
FGSRSLYSLGGDRSLNVASGSGKS	2.05
FGSRSLYSLGGERSLNVASGSGKS	2.3
FGSRSLYSLGGFRSLNVASGSGKS	1.66
FGSRSLYSLGGGRSLNVASGSGKS	2.13
FGSRSLYSLGGHRSLNVASGSGKS	1.68
FGSRSLYSLGGIRSLNVASGSGKS	2.12
FGSRSLYSLGGKRSLNVASGSGKS	2
FGSRSLYSLGGLRSLNVASGSGKS	2.21
FGSRSLYSLGGMRSLNVASGSGKS	1.68
FGSRSLYSLGGNRSLNVASGSGKS	2.28
FGSRSLYSLGGPRSLNVASGSGKS	2.2
FGSRSLYSLGGQRSLNVASGSGKS	2.11
FGSRSLYSLGGRRSLNVASGSGKS	2.37

Variant	protein stability index
FGSRSLYSLGGSRSLNVASGSGKS	2.45
FGSRSLYSLGGTRSLNVASGSGKS	2.27
FGSRSLYSLGGWRSLNVASGSGKS	1.71
FGSRSLYSLGGYRSLNVASGSGKS	1.65
FGSRSLYSLGGVASLNVASGSGKS	3.09
FGSRSLYSLGGVCSLNVASGSGKS	2.29
FGSRSLYSLGGVDSLNVASGSGKS	2.06
FGSRSLYSLGGVESLNVASGSGKS	1.86
FGSRSLYSLGGVFSLNVASGSGKS	1.72
FGSRSLYSLGGVGSLNVASGSGKS	1.45
FGSRSLYSLGGVHSLNVASGSGKS	1.81
FGSRSLYSLGGVISLNVASGSGKS	1.93
FGSRSLYSLGGVKSLNVASGSGKS	1.34
FGSRSLYSLGGVLSLNVASGSGKS	2.27
FGSRSLYSLGGVMSLNVASGSGKS	1.26
FGSRSLYSLGGVNSLNVASGSGKS	1.87
FGSRSLYSLGGVPSLNVASGSGKS	1.81
FGSRSLYSLGGVQSLNVASGSGKS	1.43
FGSRSLYSLGGVSSLNVASGSGKS	2.48
FGSRSLYSLGGVTSLNVASGSGKS	1.28
FGSRSLYSLGGVVSLNVASGSGKS	1.74
FGSRSLYSLGGVWSLNVASGSGKS	1.67
